Source: the supplement of paper PMC9732359
± gives the uncertainty stated by the source.

Assay: protein stability index of a GFP-peptide fusion (yeast GPS) (PSI 1-4); higher = more stable; sorted into four equal gates, so the index is relative within each strain
Summary of the method: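 The protein stability index of a peptide was calculated by multiplying its read frequency in each gate by that gate's number and adding the products. The peptides were tiled 17-residue stretches of yeast proteins, fused downstream of GFP on a Cherry-expressing plasmid and carried in yeast as a pooled library. Mid-log cultures in leucine-free medium were sorted into four equal gates by GFP/Cherry ratio, and each gate's plasmids were PCR-amplified and Illumina-sequenced.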

TTLTIMRILPRETDPLV [RPT4]
protein stability index (doa10∆): 2.63 ± 0.068 | protein stability index (pdr5∆): 2.62 ± 0.057 | protein stability index (san1∆): 2.73 ± 0.064 | protein stability index (ubr1∆): 2.52 ± 0.039

TTRNGFMEAQGAGIQII [FAS2]
protein stability index (doa10∆): 2.81 ± 0.13 | protein stability index (pdr5∆): 2.31 ± 0.12 | protein stability index (ubr1∆): 3.26 ± 0.11

TTSEKQEVTNEAPFLTS [GAL11]
protein stability index (doa10∆): 3.2 ± 0.093 | protein stability index (pdr5∆): 3.35 ± 0.076 | protein stability index (san1∆): 3.14 ± 0.11 | protein stability index (ubr1∆): 3.36 ± 0.067

TVEGISKLLREHGYQSR [RPB2]
protein stability index (doa10∆): 3.4 ± 0.21 | protein stability index (pdr5∆): 2.97 ± 0.21 | protein stability index (ubr1∆): 2.64 ± 0.093

TVHEMEEELKKLRDHEP [SMC4]
protein stability index (doa10∆): 3.54 ± 0.27 | protein stability index (pdr5∆): 3.26 ± 0.22 | protein stability index (ubr1∆): 3.62 ± 0.2

TVIKFRAGVCEYNEDSR [RPN13]
protein stability index (doa10∆): 2.26 ± 0.12 | protein stability index (pdr5∆): 1.96 ± 0.071 | protein stability index (san1∆): 1.8 ± 0.13 | protein stability index (ubr1∆): 2.77 ± 0.07

TVLADEFIAHRLGLIPL [RPB3]
protein stability index (doa10∆): 2.4 ± 0.087 | protein stability index (pdr5∆): 2.16 ± 0.12 | protein stability index (san1∆): 2.96 ± 0.047 | protein stability index (ubr1∆): 3.12 ± 0.071

TVLESLGRLNKLRKIAI [LIN1]
protein stability index (doa10∆): 2.66 ± 0.057 | protein stability index (pdr5∆): 2.69 ± 0.049 | protein stability index (san1∆): 2.66 ± 0.058 | protein stability index (ubr1∆): 2.95 ± 0.035

TVMYQRRSKMNPLWNAI [PRE4]
protein stability index (doa10∆): 2.83 ± 0.084 | protein stability index (pdr5∆): 3.18 ± 0.11 | protein stability index (san1∆): 2.66 ± 0.089 | protein stability index (ubr1∆): 3.09 ± 0.072

TVTDDARIFEFPKTTVA [RPL18A]
protein stability index (doa10∆): 2.68 ± 0.056 | protein stability index (pdr5∆): 2.7 ± 0.048 | protein stability index (san1∆): 2.7 ± 0.061 | protein stability index (ubr1∆): 2.42 ± 0.057

TVVISQKKVPDKLLDPT [SCL1]
protein stability index (doa10∆): 2.85 ± 0.1 | protein stability index (pdr5∆): 2.31 ± 0.085 | protein stability index (san1∆): 3.23 ± 0.064 | protein stability index (ubr1∆): 2.86 ± 0.068

TWEECVFFDDDPLYDIT [REC8]
protein stability index (doa10∆): 3 ± 0.13 | protein stability index (pdr5∆): 3.24 ± 0.14 | protein stability index (san1∆): 2.95 ± 0.06 | protein stability index (ubr1∆): 3.08 ± 0.059

TYAAEIAHNISAKNRVV [RPL32]
protein stability index (doa10∆): 2.07 ± 0.043 | protein stability index (pdr5∆): 2.27 ± 0.052 | protein stability index (san1∆): 2.28 ± 0.068 | protein stability index (ubr1∆): 2.13 ± 0.039

TYKYFEVILVDPQHKAI [RPL15A]
protein stability index (doa10∆): 2.32 ± 0.083 | protein stability index (pdr5∆): 2.09 ± 0.074 | protein stability index (san1∆): 2.5 ± 0.15 | protein stability index (ubr1∆): 2.63 ± 0.12

TYVITKNGKIYLKHNSI [RET1]
protein stability index (doa10∆): 2.72 ± 0.053 | protein stability index (pdr5∆): 2.54 ± 0.046 | protein stability index (san1∆): 2.45 ± 0.067 | protein stability index (ubr1∆): 2.64 ± 0.028

TYVLNTWTNSKIFIKDP [YML103C/NUP188]
protein stability index (doa10∆): 2 ± 0.056 | protein stability index (pdr5∆): 2.15 ± 0.046 | protein stability index (san1∆): 2.3 ± 0.058 | protein stability index (ubr1∆): 2.23 ± 0.034

VAARGLDIPNVSLVVNF [PRP28]
protein stability index (doa10∆): 2 ± 0.12 | protein stability index (pdr5∆): 2.5 ± 0.096 | protein stability index (san1∆): 2.04 ± 0.12 | protein stability index (ubr1∆): 3.1 ± 0.15

VADAKQLGEWAGLGKID [RPS12]
protein stability index (doa10∆): 3.67 ± 0.28 | protein stability index (san1∆): 3.46 ± 0.24 | protein stability index (ubr1∆): 3.35 ± 0.13

VAFDNINTHIETLAYNS [SNF2]
protein stability index (doa10∆): 2.56 ± 0.1 | protein stability index (pdr5∆): 2.85 ± 0.074 | protein stability index (san1∆): 2.5 ± 0.063 | protein stability index (ubr1∆): 1.99 ± 0.058

VAGLEDKFRKACSSSGR [SIR3]
protein stability index (doa10∆): 3.16 ± 0.14 | protein stability index (pdr5∆): 2.93 ± 0.095 | protein stability index (san1∆): 2.98 ± 0.18 | protein stability index (ubr1∆): 2.9 ± 0.056

VAHSSRLANLIDYKLRV [SMB1]
protein stability index (doa10∆): 3.58 ± 0.15 | protein stability index (pdr5∆): 3.26 ± 0.15 | protein stability index (san1∆): 2.5 ± 0.2 | protein stability index (ubr1∆): 3.17 ± 0.066

VALTGLLIRSKTEDPKG [YML031W/NDC1]
protein stability index (doa10∆): 1.71 ± 0.041 | protein stability index (pdr5∆): 2.21 ± 0.042 | protein stability index (san1∆): 1.73 ± 0.052 | protein stability index (ubr1∆): 2.28 ± 0.032

VANSTKAAFIRVNGSEF [RPT3]
protein stability index (doa10∆): 1.92 ± 0.05 | protein stability index (pdr5∆): 1.69 ± 0.044 | protein stability index (san1∆): 1.66 ± 0.082 | protein stability index (ubr1∆): 1.44 ± 0.034

VANYSAMANAPGNNIPY [GAL11]
protein stability index (doa10∆): 2.88 ± 0.16 | protein stability index (pdr5∆): 3.25 ± 0.18 | protein stability index (san1∆): 2.7 ± 0.17 | protein stability index (ubr1∆): 2.76 ± 0.16

VAPVSEIVNMVPSHVPQ [SIR2]
protein stability index (doa10∆): 3.01 ± 0.09 | protein stability index (pdr5∆): 2.96 ± 0.069 | protein stability index (san1∆): 2.66 ± 0.06 | protein stability index (ubr1∆): 2.87 ± 0.046

VARFLHFNGIRRLDALV [ITC1]
protein stability index (doa10∆): 3.44 ± 0.16 | protein stability index (pdr5∆): 3.45 ± 0.11 | protein stability index (san1∆): 3.41 ± 0.058 | protein stability index (ubr1∆): 3.35 ± 0.08

VASSTNFTSPTAVVNNA [SWI1]
protein stability index (doa10∆): 2.64 ± 0.094 | protein stability index (pdr5∆): 2.56 ± 0.12 | protein stability index (san1∆): 2.48 ± 0.14 | protein stability index (ubr1∆): 2.91 ± 0.069

VCLMQISTRERDYLVDT [RRP6]
protein stability index (doa10∆): 3.3 ± 0.22 | protein stability index (pdr5∆): 3.4 ± 0.16 | protein stability index (san1∆): 3.49 ± 0.088 | protein stability index (ubr1∆): 2.99 ± 0.089

VCQVTKFGLLLQVSAQE [ECM29]
protein stability index (doa10∆): 2.15 ± 0.061 | protein stability index (pdr5∆): 2.15 ± 0.044 | protein stability index (san1∆): 2.62 ± 0.067 | protein stability index (ubr1∆): 1.9 ± 0.04

VDAGIALNSMCASIPIA [RRP46]
protein stability index (doa10∆): 1.65 ± 0.12 | protein stability index (pdr5∆): 1.63 ± 0.12 | protein stability index (san1∆): 1.71 ± 0.15 | protein stability index (ubr1∆): 1.66 ± 0.16

VDEELGPSIYKTDPAGY [SCL1]
protein stability index (doa10∆): 3.12 ± 0.084 | protein stability index (pdr5∆): 3.35 ± 0.074 | protein stability index (san1∆): 3.29 ± 0.072 | protein stability index (ubr1∆): 3.27 ± 0.083

VDFDGLDIKRVGSENVE [SNF12]
protein stability index (doa10∆): 3.3 ± 0.19 | protein stability index (pdr5∆): 3.32 ± 0.14 | protein stability index (san1∆): 3.49 ± 0.24 | protein stability index (ubr1∆): 3.35 ± 0.1

VDFSKYNTNFNLLLREL [SRP72]
protein stability index (doa10∆): 2.99 ± 0.1 | protein stability index (pdr5∆): 3.24 ± 0.12 | protein stability index (san1∆): 2.97 ± 0.1 | protein stability index (ubr1∆): 3.31 ± 0.056

VDGEAVGDEFKGYVFKI [RPS6A]
protein stability index (pdr5∆): 3.79 ± 0.18

VDIKGEDLHEKNDSAEV [NUT1]
protein stability index (doa10∆): 3.54 ± 0.12 | protein stability index (pdr5∆): 3.37 ± 0.2 | protein stability index (san1∆): 2.93 ± 0.19 | protein stability index (ubr1∆): 3.55 ± 0.12

VDIYSLPLISTDVLEIS [YMR129W/POM152]
protein stability index (doa10∆): 2.06 ± 0.052 | protein stability index (pdr5∆): 2.58 ± 0.049 | protein stability index (san1∆): 2.43 ± 0.045 | protein stability index (ubr1∆): 2.44 ± 0.044

VDIYTHFTSPIRRYCDV [DIS3]
protein stability index (doa10∆): 1.61 ± 0.043 | protein stability index (pdr5∆): 1.91 ± 0.055 | protein stability index (san1∆): 1.94 ± 0.073 | protein stability index (ubr1∆): 2.19 ± 0.04

VDKNFDKLELYVLRNVL [MTW1]
protein stability index (doa10∆): 3.01 ± 0.096 | protein stability index (pdr5∆): 2.43 ± 0.078 | protein stability index (san1∆): 2.81 ± 0.12 | protein stability index (ubr1∆): 3.05 ± 0.071

VDLEEVMDTIQEQITLY [SSN8]
protein stability index (doa10∆): 3.33 ± 0.13 | protein stability index (pdr5∆): 3.18 ± 0.087 | protein stability index (san1∆): 3.16 ± 0.079 | protein stability index (ubr1∆): 3.32 ± 0.08

VDPARRQILFKYPMYMQ [MED6]
protein stability index (doa10∆): 1.54 ± 0.069 | protein stability index (pdr5∆): 1.78 ± 0.076 | protein stability index (san1∆): 1.95 ± 0.17 | protein stability index (ubr1∆): 1.47 ± 0.051

VDPASAPNHSPEIDNLD [RRP6]
protein stability index (doa10∆): 3.1 ± 0.11 | protein stability index (pdr5∆): 2.98 ± 0.074 | protein stability index (san1∆): 3.25 ± 0.072 | protein stability index (ubr1∆): 3.16 ± 0.059

VDPLKSLEDKILRMGAF [RRI1]
protein stability index (doa10∆): 3.19 ± 0.12 | protein stability index (pdr5∆): 3.04 ± 0.14 | protein stability index (san1∆): 2.88 ± 0.12 | protein stability index (ubr1∆): 2.94 ± 0.094

VDQNPLTMHKIIQLILW [SRB8]
protein stability index (doa10∆): 1.47 ± 0.085 | protein stability index (pdr5∆): 1.6 ± 0.086 | protein stability index (san1∆): 1.23 ± 0.17 | protein stability index (ubr1∆): 1.36 ± 0.081

VDSNLPDDEKFTDENTI [RPC40]
protein stability index (doa10∆): 2.35 ± 0.15 | protein stability index (pdr5∆): 3.46 ± 0.21 | protein stability index (san1∆): 2.02 ± 0.19

VDSQGLPYNWDALEMQW [ARP7]
protein stability index (doa10∆): 1.7 ± 0.066 | protein stability index (pdr5∆): 2.35 ± 0.07 | protein stability index (san1∆): 2.64 ± 0.1 | protein stability index (ubr1∆): 1.91 ± 0.073

VDVKPKSPKERELEERA [RPC25]
protein stability index (pdr5∆): 3.07 ± 0.17 | protein stability index (ubr1∆): 3.31 ± 0.13

VEAIRRSNQYQRGKMHG [NUT2]
protein stability index (doa10∆): 2.85 ± 0.085 | protein stability index (pdr5∆): 2.64 ± 0.076 | protein stability index (san1∆): 2.83 ± 0.11 | protein stability index (ubr1∆): 2.6 ± 0.099

VECAQHCIDYLRKNKLG [SMC4]
protein stability index (doa10∆): 1.44 ± 0.07 | protein stability index (pdr5∆): 1.19 ± 0.068 | protein stability index (san1∆): 1.62 ± 0.1 | protein stability index (ubr1∆): 1.36 ± 0.058

VEEAHDFNMKLAINAKT [RPB2]
protein stability index (doa10∆): 3.09 ± 0.072 | protein stability index (pdr5∆): 3.03 ± 0.085 | protein stability index (san1∆): 3.08 ± 0.064 | protein stability index (ubr1∆): 3.08 ± 0.05

VEESSEKKQKTESQDVE [DPB4]
protein stability index (doa10∆): 2.8 ± 0.13 | protein stability index (pdr5∆): 3.33 ± 0.12 | protein stability index (san1∆): 3.23 ± 0.13 | protein stability index (ubr1∆): 3.03 ± 0.07

VELIESKINELSYYVEE [SMC4]
protein stability index (doa10∆): 3.29 ± 0.12 | protein stability index (pdr5∆): 3.42 ± 0.082 | protein stability index (san1∆): 3.28 ± 0.1 | protein stability index (ubr1∆): 3.4 ± 0.083

VELPYGAHGYSGFYTFS [PRE1]
protein stability index (doa10∆): 2.92 ± 0.17 | protein stability index (pdr5∆): 2.32 ± 0.17 | protein stability index (san1∆): 2.9 ± 0.13 | protein stability index (ubr1∆): 2.83 ± 0.095
